In patent US11065317B2, “Heat shock protein-binding peptide compositions and methods of use thereof” (Agenus Inc., priority 2018, dated 2021):

Biological target: T1, human Hsc70 (Homo sapiens, UniProt P11142)
T1 construct: made in house; host or cells: E. coli
Assay: Percent complexation of peptides with Hsc70 by size exclusion chromatography
Type: binding
Conditions: 60 minutes at 30° C., SEC, 214 nm; for Percent complexation of peptides with Hsc70, 0.25:1: peptide:Hsc70 molar ratio 0.25:1; for Percent complexation of peptides with Hsc70, 0.5:1: peptide:Hsc70 molar ratio 0.5:1; for Percent complexation of peptides with Hsc70, 1:1: peptide:Hsc70 molar ratio 1:1; for Percent complexation of peptides with Hsc70, 2:1: peptide:Hsc70 molar ratio 2:1; for Percent complexation of peptides with Hsc70, 4:1: peptide:Hsc70 molar ratio 4:1
Experimental: In a separate experiment, further variants of the peptide NLLRLTG (SEQ ID NO: 70) were generated and the ability of these peptides to form a peptide-Hsc70 complex was analyzed. Peptides were again synthesized using standard Fmoc solid-phase chemical synthesis, as described above. Individual peptides were solubilized in pH adjusted water at a concentration of 250 μM, and spiked with polysorbate 20 to a final concentration of 0.1%. To form a peptide-Hsc70 complex, Hsc70 (1 mg/ml, 0.1% polysorbate) was mixed with peptide at peptide:Hsc70 molar ratios of, 0.25:1, 0.5:1, 1:1, 2:1, and 4:1, for 60 minutes at 30° C. Following incubation, samples were cooled for 5 minutes at room temperature and transferred to HPLC vials for analysis. To evaluate the quantity of the complex in the solution, 20 μl (10 μg) of the sample was loaded on a size exclusion chromatography column TSKgel SuperSW3000 (Tosoh Bioscience) at a flow rate of 0.2 ml/min with 1×PBS as a running buffer. The data was collected by measuring the absorbance at 214 nm.
The percent of Hsc70 bound to peptide was calculated by SEC. As shown in the SEC chromatogram depicted in FIG. 1, recombinant human heat shock cognate 71 kDa protein (Hsc70) appeared as monomer (M), dimer (D), trimer (T), and higher order high molecular weight (HMW) oligomeric species when subjected to SEC chromatography. Resolution and evaluation of the extent to which peptide-Hsc70 complex was formed with a given peptide or peptide mixture was complicated by the close elution of a complex of Hsc70 monomer with peptide (Msh). The peaks corresponding to monomer and complex overlap and were not fully resolved by conventional SEC media. In order to more accurately calculate the extent of complex formation, the following data analytical method was used. […] Peak area integrations of these protein species were well resolved from the complex and monomer. Further, the extent to which complex was formed appeared to be […] to the extent to which trimer and dimer were recruited to complex formation. Because of this observation, changes in trimer and dimer reflected the extent to which monomer was recruited to the formation of complex. Thus, the progression of changes in the level of trimer and dimer was used to calculate expected changes in the peak areas of overlapping complex and monomer species, and these calculated peak areas were used to calculate net formation of complex.
Terms used for various chromatographic fractions include: High Molecular Weight (HMW), Trimer and other mid-order oligomer (T), Dimer (D), Complex (C), Monomer shoulder (Msh), and Monomer (M) (see FIG. 1). Peak areas of the various fractions were extracted from SEC data and the percentage of peptide-Hsc70 complex formation was calculated using the following set of equations: % Complex=(AREAcomplex/AREATotal)×100 AREAcomplex=AREATotal−(AreaT+D+AreaMshx+AreaMx) AREATotal=AREAT+D,C,Msh,M+(AREAHDw-x−AREAHDW-0) AREAMshx=AREAMsh0×(AREA(T+D)x)/(AREA(T+D)0) AREAMx=AREAM0×(AREA(T+D)x)/(AREA(T+D)0)
AREATotal is the sum of total integrated peak areas from trimer/oligomer region through the monomer peak and excludes the initial HMW peak area but includes the excess increase of the HMW peak area that was observed when peptide was added. The HMW peak was excluded from the complexation calculation on the basis that it was aggregated protein that was not functional for complexation. This correction took into account AreaTotal factors in the minor increase in HMW area, adding it back to base total area used to calculate area of complex.
The foregoing method was applied to the SEC chromatogram for each complexation reaction by applying vertical lines to the chromatogram to produce HMW, T, C, D, and M segments (as shown in FIG. 1), calculating the area under the curve for of each of the indicated HMW, T, C, D, and M segments, and inputting the values into the equations described above.

T1 sequence (P11142 whole entry): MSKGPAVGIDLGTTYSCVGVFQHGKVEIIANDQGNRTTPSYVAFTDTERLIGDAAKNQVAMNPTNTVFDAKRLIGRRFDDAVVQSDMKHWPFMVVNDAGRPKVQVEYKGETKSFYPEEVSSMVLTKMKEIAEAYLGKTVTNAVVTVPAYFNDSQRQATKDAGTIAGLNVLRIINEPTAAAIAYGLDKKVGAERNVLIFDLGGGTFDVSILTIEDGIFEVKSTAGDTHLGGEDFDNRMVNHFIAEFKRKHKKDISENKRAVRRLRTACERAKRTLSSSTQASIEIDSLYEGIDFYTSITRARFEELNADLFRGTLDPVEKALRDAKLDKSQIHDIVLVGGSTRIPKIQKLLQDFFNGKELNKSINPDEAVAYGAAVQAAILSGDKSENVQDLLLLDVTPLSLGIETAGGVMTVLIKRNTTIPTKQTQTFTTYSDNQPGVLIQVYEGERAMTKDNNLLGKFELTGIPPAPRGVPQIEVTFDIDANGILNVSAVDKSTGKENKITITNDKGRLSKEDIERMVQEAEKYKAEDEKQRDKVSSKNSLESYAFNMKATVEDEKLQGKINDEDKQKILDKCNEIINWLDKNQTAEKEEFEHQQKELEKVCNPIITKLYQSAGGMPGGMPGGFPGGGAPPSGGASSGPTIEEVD

Sequence	Percent complexation of peptides with Hsc70, 0.25:1 [%]	Percent complexation of peptides with Hsc70, 0.5:1 [%]	Percent complexation of peptides with Hsc70, 1:1 [%]	Percent complexation of peptides with Hsc70, 2:1 [%]	Percent complexation of peptides with Hsc70, 4:1 [%]
FFRKQWLRLTW [PEP014]	29.3	54.4	80.9	88.1	90.3
FFRKNWLRLKW [PEP011]	31.2	58.2	81.6	87.8	90.4
FFRKNWLRLLW [PEP009]	32.8	63.5	81.0	85.3	89.0
FFRKNFLRLTF [PEP027]	19.1	49.0	77.0	85.6	90.0
FFRKNWLKLRW [PEP057]	24.9	50.0	72.2	82.8	88.3
FFRKNRLWLTG [PEP005]	16.0	32.7	54.8	67.6	77.6
FFRKNWLKLWK [PEP058]	22.7	43.5	66.5	78.8	83.9
FRNWLRLTW [PEP028]	24.0	46.4	75.6	84.1	87.5
FFRKNLLRLTG [PEP001, reference compound]	23.4	44.7	68.1	82.5	90.1
FFRKFWLRLTW [PEP008]	24.4	38.3	61.8	79.1	81.6
